{"source": "patent US20190038660", "test_system": "ZF6-DBD (Artificial Sequence)", "sequence (chain, as listed by the source)": "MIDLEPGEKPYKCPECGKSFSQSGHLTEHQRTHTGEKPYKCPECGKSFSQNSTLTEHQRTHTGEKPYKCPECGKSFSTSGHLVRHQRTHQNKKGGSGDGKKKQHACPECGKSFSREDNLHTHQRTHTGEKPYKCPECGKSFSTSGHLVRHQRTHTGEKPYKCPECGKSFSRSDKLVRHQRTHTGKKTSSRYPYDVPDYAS", "test": "cell_activity", "details": "in vivo porcine retina, AAV8 DBR-R vector 1x10^12 gc, hRHO-s-ΔZF6 promoter, qPCR 2 months after delivery; binding inferred from repression, not measured …", "data": [{"substance": "porcine Rhodopsin proximal promoter (ZF6 target region)", "values": [{"measurement": "activity (% repression of Rho transcript)", "value": 35}]}]}
